Measured values reported in patent publication US20240400711A1 (SOUND BIOPHARMACEUTICALS, published 2024).

Legend:
[1] = target: T1, recombinant extracellular domain of CD38 (human, UniProt P28907 43-300); assay: Biacore SPR
T1 construct: also called CD38 extracellular domain; AtaGenix ATMP00140HU

[2] = target: CD38 on CD38-positive cells (human, UniProt P28907 1-300); assay: cell-based or functional assay
FcγRIIIa(F176) = FcγRIIIa(F176) (UniProt P08637 17-208, limits assumed); assay: kinetics, FcγRIIIa as ligand, antibody as analyte
FcγRIIIa (V176) = FcγRIIIa (V176) (UniProt P08637 17-208, limits assumed); assay: kinetics, FcγRIIIa as ligand, antibody as analyte
Chain of FcγRIIIa (V176) (P08637 17-208 F176V limits assumed): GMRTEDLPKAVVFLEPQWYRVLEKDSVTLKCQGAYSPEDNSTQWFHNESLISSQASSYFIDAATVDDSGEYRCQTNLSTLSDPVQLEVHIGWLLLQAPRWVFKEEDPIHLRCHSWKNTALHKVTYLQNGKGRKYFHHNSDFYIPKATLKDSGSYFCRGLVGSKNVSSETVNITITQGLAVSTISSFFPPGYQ

Chain of FcγRIIIa(F176) (P08637 17-208 limits assumed): as the sequence (P08637 17-208 F176V limits assumed) above, with V160F counted along it

| Kd [1] | koff [1] | kon [1] | Binder | other results |
| --- | --- | --- | --- | --- |
| 8.3 nM | 0.00285 s⁻¹ | 344000 M⁻¹ s⁻¹ | FTL004-hu-2 (antibody, human IgG1, kappa, V domains shown, also called FLT004-hu-2; FTL004-hum-2) VH: QVQLVQSGSELKKPGASVKVSCKASGYTFTDYNVHWIRQAPGQGLEWIGYFYPRNGATHYAQGFTGRAVLSADTSVSTAYLQISSLKAEDTAVYYCARGETPGTFPYWGQGTLVTVSS VL: DIVLTQSPASLAVSPGQRATITCRASESVDNFGITFMHWYQQKPGQPPKLLIYRASNLESGVPARFSGSGSRTDFTLTINPVEANDTANYYCQQSSKDPRTFGQGTKLEIKR | – |
| 3.04 nM | 0.000699 s⁻¹ | 230000 M⁻¹ s⁻¹ | FTL004-hu-9 (antibody, human IgG1, kappa, V domains shown, also called FLT004-hu-9; FTL004-hum-9) VH: QVQLVQSGAEVKKPGASVKVSCKASGYTFTDYNVHWIRQAPGQGLEWIGYFYPRNGATHYNQKFTGRATLTVDTSTSTAYMEISSLRSEDTAVYFCARGETPGTFPYWGQGTLVTVSS VL: EIVLTQSPATLSLSPGERATLSCRASESVDNFGITFMHWYQQKPGQAPRLLIYRASNLESGIPARFSGSGSRTDFTLTISSLEPEDFAVYYCQQSSKDPRTFGQGTKLEIKR | – |
| 2.87 nM | 0.000848 s⁻¹ | 296000 M⁻¹ s⁻¹ | FTL004-hu-11 (antibody, human IgG1, kappa, V domains shown, also called FLT004-hu-11; FTL004-hum-11) VH: QVQLVQSGAEVKKPGASVKVSCKASGYTFTDYNVHWIRQAPGQGLEWIGYFYPRNGATHYNQKFTGRATLTVDTSTSTAYMEISSLRSEDTAVYFCARGETPGTFPYWGQGTLVTVSS VL: DIQLTQSPSSLSASVGDRVTITCRASESVDNFGITFMHWYQQKPGKAPKLLIYRASNLESGVPSRFSGSGSRTDFTLTISSLQPEDFATYYCQQSSKDPRTFGQGTKLEIKR | – |
| 10.5 nM | 0.00313 s⁻¹ | 297000 M⁻¹ s⁻¹ | FTL004-hu-4 (antibody, human IgG1, kappa, V domains shown, also called FLT004-hu-4; FTL004-hum-4) VH: QVQLVQSGSELKKPGASVKVSCKASGYTFTDYNVHWIRQAPGQGLEWIGYFYPRNGATHYAQGFTGRAVLSADTSVSTAYLQISSLKAEDTAVYYCARGETPGTFPYWGQGTLVTVSS VL: EIVLTQSPATLSLSPGERATLSCRASESVDNFGITFMHWYQQKPGQAPRLLIYRASNLESGIPARFSGSGSRTDFTLTISSLEPEDFAVYYCQQSSKDPRTFGQGTKLEIKR | – |
| 25.2 nM | 0.00459 s⁻¹ | 182000 M⁻¹ s⁻¹ | FTL004-hu-16 (antibody, human IgG1, kappa, V domains shown, also called FLT004-hu-16; FTL004-hum-16) VH: EVQLVQSGAEVKKPGATVKISCKASGYTFTDYNVHWIQQAPGKGLEWIGYFYPRNGATHYAEKFQGRVTLTADTSTDTAYMELSSLRSEDTAVYYCARGETPGTFPYWGQGTLVTVSS VL: EIVLTQSPATLSLSPGERATLSCRASESVDNFGITFMHWYQQKPGQAPRLLIYRASNLESGIPARFSGSGSRTDFTLTISSLEPEDFAVYYCQQSSKDPRTFGQGTKLEIKR | – |
| 1.65 nM | 0.000686 s⁻¹ | 415000 M⁻¹ s⁻¹ | FTL004-hu-5 (antibody, human IgG1, kappa, V domains shown, also called FLT004-hu-5; FTL004-hum-5) VH: QVQLVQSGSELKKPGASVKVSCKASGYTFTDYNVHWIRQAPGQGLEWIGYFYPRNGATHYNQKFTGRAVLSADTSVSTAYLQISSLKAEDTAVYFCARGETPGTFPYWGQGTLVTVSS VL: DIQLTQSPSSLSASVGDRVTITCRASESVDNFGITFMHWYQQKPGKAPKLLIYRASNLESGVPSRFSGSGSRTDFTLTISSLQPEDFATYYCQQSSKDPRTFGQGTKLEIKR | – |
| 3.66 nM | 0.000784 s⁻¹ | 214000 M⁻¹ s⁻¹ | FTL004-hu-15 (antibody, human IgG1, kappa, V domains shown, also called FLT004-hu-15; FTL004-hum-15) VH: EVQLVQSGAEVKKPGATVKISCKASGYTFTDYNVHWIQQAPGKGLEWIGYFYPRNGATHYNQKFTGRATLTADTSTDTAYMEISSLRSEDTAVYFCARGETPGTFPYWGQGTLVTVSS VL: EIVLTQSPATLSLSPGERATLSCRASESVDNFGITFMHWYQQKPGQAPRLLIYRASNLESGIPARFSGSGSRTDFTLTISSLEPEDFAVYYCQQSSKDPRTFGQGTKLEIKR | – |
| 3.54 nM | 0.00083 s⁻¹ | 234000 M⁻¹ s⁻¹ | FTL004-hu-12 (antibody, human IgG1, kappa, V domains shown, also called FLT004-hu-12; FTL004-hum-12) VH: QVQLVQSGAEVKKPGASVKVSCKASGYTFTDYNVHWIRQAPGQGLEWIGYFYPRNGATHYNQKFTGRATLTVDTSTSTAYMEISSLRSEDTAVYFCARGETPGTFPYWGQGTLVTVSS VL: DIQLTQSPSSLSASVGDRVTITCQASESVDNFGITFMHWYQQKPGKAPKLLIYRASNLETGVPSRFSGSGSRTDFTFTISSLQPEDIATYYCQQSSKDPRTFGQGTKLEIKR | – |
| 3.09 nM | 0.000848 s⁻¹ | 275000 M⁻¹ s⁻¹ | FTL004-hu-17 (antibody, human IgG1, kappa, V domains shown, also called FLT004-hu-17; FTL004-hum-17) VH: EVQLVQSGAEVKKPGATVKISCKASGYTFTDYNVHWIQQAPGKGLEWIGYFYPRNGATHYNQKFTGRATLTADTSTDTAYMEISSLRSEDTAVYFCARGETPGTFPYWGQGTLVTVSS VL: DIQLTQSPSSLSASVGDRVTITCRASESVDNFGITFMHWYQQKPGKAPKLLIYRASNLESGVPSRFSGSGSRTDFTLTISSLQPEDFATYYCQQSSKDPRTFGQGTKLEIKR | – |
| 4.16 nM | 0.000788 s⁻¹ | 189000 M⁻¹ s⁻¹ | FTL004-hu-18 (antibody, human IgG1, kappa, V domains shown, also called FLT004-hu-18; FTL004-hum-18) VH: EVQLVQSGAEVKKPGATVKISCKASGYTFTDYNVHWIQQAPGKGLEWIGYFYPRNGATHYNQKFTGRATLTADTSTDTAYMEISSLRSEDTAVYFCARGETPGTFPYWGQGTLVTVSS VL: DIQLTQSPSSLSASVGDRVTITCQASESVDNFGITFMHWYQQKPGKAPKLLIYRASNLETGVPSRFSGSGSRTDFTFTISSLQPEDIATYYCQQSSKDPRTFGQGTKLEIKR | – |
| 1.5 nM | 0.00052 s⁻¹ | 347000 M⁻¹ s⁻¹ | FTL004-hu-3 (antibody, human IgG1, kappa, V domains shown, also called FLT004-hu-3; FTL004-hum-3) VH: QVQLVQSGSELKKPGASVKVSCKASGYTFTDYNVHWIRQAPGQGLEWIGYFYPRNGATHYNQKFTGRAVLSADTSVSTAYLQISSLKAEDTAVYFCARGETPGTFPYWGQGTLVTVSS VL: EIVLTQSPATLSLSPGERATLSCRASESVDNFGITFMHWYQQKPGQAPRLLIYRASNLESGIPARFSGSGSRTDFTLTISSLEPEDFAVYYCQQSSKDPRTFGQGTKLEIKR | – |
| 2.4 nM | 0.000766 s⁻¹ | 320000 M⁻¹ s⁻¹ | FTL004-hu-7 (antibody, human IgG1, kappa, Fc before engineering; also called FLT004-hu-7; FTL004-hum-7) heavy: not shown light: DIVLTQSPASLAVSPGQRATITCRASESVDNFGITFMHWYQQKPGQPPKLLIYRASNLESGVPARFSGSGSRTDFTLTINPVEANDTANYYCQQSSKDPRTFGQGTKLEIKRTVAAPSVFIFPPSDEQLKSGTASVVCLLNNFYPREAKVQWKVDNALQSGNSQESVTEQDSKDSTYSLSSTLTLSKADYEKHKVYACEVTHQGLSSPVTKSFNRGEC | Rate of apoptosis (%), Daudi cells [2]: 34.5%; Rate of apoptosis (%), Raji cells [2]: 12.1%; Rate of apoptosis (%), Romas cells [2]: 31.1%; Rate of apoptosis (%), SU-DHL-6 cells [2]: 19.9% |
| 8.39 nM | 0.00257 s⁻¹ | 307000 M⁻¹ s⁻¹ | FTL004-hu-8 (antibody, human IgG1, kappa, V domains shown, also called FLT004-hu-8; FTL004-hum-8) VH: QVQLVQSGAEVKKPGASVKVSCKASGYTFTDYNVHWIRQAPGQGLEWIGYFYPRNGATHYAQKFQGRVTMTVDTSTSTAYMELSSLRSEDTAVYYCARGETPGTFPYWGQGTLVTVSS VL: DIVLTQSPASLAVSPGQRATITCRASESVDNFGITFMHWYQQKPGQPPKLLIYRASNLESGVPARFSGSGSRTDFTLTINPVEANDTANYYCQQSSKDPRTFGQGTKLEIKR | – |
| – | – | – | FTL004-7 (antibody, human IgG1, kappa, copies: 2 + 2) heavy: not shown light: DIVLTQSPASLAVSPGQRATITCRASESVDNFGITFMHWYQQKPGQPPKLLIYRASNLESGVPARFSGSGSRTDFTLTINPVEANDTANYYCQQSSKDPRTFGQGTKLEIKRTVAAPSVFIFPPSDEQLKSGTASVVCLLNNFYPREAKVQWKVDNALQSGNSQESVTEQDSKDSTYSLSSTLTLSKADYEKHKVYACEVTHQGLSSPVTKSFNRGEC | Rate of apoptosis (%), Daudi cells [2]: 37.4%; Rate of apoptosis (%), Raji cells [2]: 17.8%; Rate of apoptosis (%), Romas cells [2]: 60.3%; Rate of apoptosis (%), SU-DHL-6 cells [2]: 20.3%; Kd (FcγRIIIa(F176)): 22.7 nM; koff (FcγRIIIa(F176)): 0.0136 s⁻¹; kon (FcγRIIIa(F176)): 599000 M⁻¹ s⁻¹; Kd (FcγRIIIa (V176)): 36.9 nM; koff (FcγRIIIa (V176)): 0.021 s⁻¹; kon (FcγRIIIa (V176)): 570000 M⁻¹ s⁻¹ |
| 2.78 nM | 0.000853 s⁻¹ | 307000 M⁻¹ s⁻¹ | FTL004-hu-13 (antibody, human IgG1, kappa, V domains shown, also called FLT004-hu-13; FTL004-hum-13) VH: EVQLVQSGAEVKKPGATVKISCKASGYTFTDYNVHWIQQAPGKGLEWIGYFYPRNGATHYNQKFTGRATLTADTSTDTAYMEISSLRSEDTAVYFCARGETPGTFPYWGQGTLVTVSS VL: DIVLTQSPASLAVSPGQRATITCRASESVDNFGITFMHWYQQKPGQPPKLLIYRASNLESGVPARFSGSGSRTDFTLTINPVEANDTANYYCQQSSKDPRTFGQGTKLEIKR | – |
| 1.42 nM | – | – | FTL004-hu-1 (antibody, human IgG1, kappa, human IgG1 type constant regions, Fc before engineering; also called FLT004-hu-1; FTL004-hum-1) heavy: not shown light: DIVLTQSPASLAVSPGQRATITCRASESVDNFGITFMHWYQQKPGQPPKLLIYRASNLESGVPARFSGSGSRTDFTLTINPVEANDTANYYCQQSSKDPRTFGQGTKLEIKRTVAAPSVFIFPPSDEQLKSGTASVVCLLNNFYPREAKVQWKVDNALQSGNSQESVTEQDSKDSTYSLSSTLTLSKADYEKHKVYACEVTHQGLSSPVTKSFNRGEC | Rate of apoptosis (%), Daudi cells [2]: 36.9%; Rate of apoptosis (%), Raji cells [2]: 14.8%; Rate of apoptosis (%), Romas cells [2]: 62.7%; Rate of apoptosis (%), SU-DHL-6 cells [2]: 20.2% |
| 2.44 nM | 0.000677 s⁻¹ | 277000 M⁻¹ s⁻¹ | FTL004-hu-6 (antibody, human IgG1, kappa, Fc before engineering; also called FLT004-hu-6; FTL004-hum-6) heavy: not shown light: DIQLTQSPSSLSASVGDRVTITCQASESVDNFGITFMHWYQQKPGKAPKLLIYRASNLETGVPSRFSGSGSRTDFTFTISSLQPEDIATYYCQQSSKDPRTFGQGTKLEIKRTVAAPSVFIFPPSDEQLKSGTASVVCLLNNFYPREAKVQWKVDNALQSGNSQESVTEQDSKDSTYSLSSTLTLSKADYEKHKVYACEVTHQGLSSPVTKSFNRGEC | Rate of apoptosis (%), Daudi cells [2]: 29.3%; Rate of apoptosis (%), Raji cells [2]: 13.8%; Rate of apoptosis (%), Romas cells [2]: 63.6%; Rate of apoptosis (%), SU-DHL-6 cells [2]: 16.8% |
| – | – | – | FTL004-6 (antibody, human IgG1, kappa) heavy: not shown light: DIQLTQSPSSLSASVGDRVTITCQASESVDNFGITFMHWYQQKPGKAPKLLIYRASNLETGVPSRFSGSGSRTDFTFTISSLQPEDIATYYCQQSSKDPRTFGQGTKLEIKRTVAAPSVFIFPPSDEQLKSGTASVVCLLNNFYPREAKVQWKVDNALQSGNSQESVTEQDSKDSTYSLSSTLTLSKADYEKHKVYACEVTHQGLSSPVTKSFNRGEC | Rate of apoptosis (%), Daudi cells [2]: 36%; Rate of apoptosis (%), Raji cells [2]: 13.9%; Rate of apoptosis (%), Romas cells [2]: 57%; Rate of apoptosis (%), SU-DHL-6 cells [2]: 15.1% |
